In the supplement of paper PMC10126150:
± gives the standard deviation of the averaged measurements.

Tested on: ATP
Assay: switch fluorescence ratio, 500 uM ATP over buffer (Cy3 cluster intensity, sum of 5 cycles each) (fold (ratio)); higher = stronger signal-on switching upon ATP binding; sequences stand for … in TCGTCGGCAGCGTCAGATGTGTATAAGAGACAGTTTTTTTTTTTTTTTTTTTTTTTTT…TC
Conditions: aptamer strand: ATP DNA aptamer (quencher-CACCTGGGGGAGTATTGCGGAGGAAGG + anchor), 100 nM annealed; ATP concentration: 500 uM
How it was run: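 Exposure to 500 uM ATP lasted 15 min at 22 °C before imaging, and a selection-buffer image was taken beforehand, for Cy3-labelled switching-strand clusters on a modified Illumina MiSeq flow-cell annealed to 100 nM quencher-labelled ATP aptamer. Five buffer/ATP cycles were run with NaOH stripping and re-annealing between them. The fluorescence ratio per cluster is summed target-cycle over summed buffer-cycle Cy3 intensity, averaged per switch-domain sequence. Clusters outside 100-1000 RFU were excluded.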

Sequence | switch fluorescence ratio
AAGGGATTGT | 1.18 ± 0.26
AAGGGCAGAA | 0.973 ± 0.03
AAGGGCAGTA | 0.998 ± 0.01
AAGGGCGGAT | 1.02 ± 0.021
AAGGGCGGGA | 1.02 ± 0.086
AAGGGCTAGG | 0.999 ± 0.014
AAGGGCTCTG | 1.01 ± 0.046
AAGGGCTGGT | 0.99 ± 0.022
AAGGGGAAAA | 0.983 ± 0.02
AAGGGGAAGG | 0.996 ± 0.012
AAGGGGAATA | 1.01 ± 0.035
AAGGGGAGGA | 0.989 ± 0.016
AAGGGGAGGC | 0.971 ± 0.041
AAGGGGATAT | 1.03 ± 0.044
AAGGGGATTG | 0.986 ± 0.042
AAGGGGCAGC | 0.9903 ± 0.0069
AAGGGGCCCC | 1.31 ± 0.49
AAGGGGCCGG | 1.0099 ± 8.3e-05
AAGGGGCGCA | 0.969 ± 0.045
AAGGGGGATC | 1 ± 0.032
AAGGGGGCCC | 0.99 ± 0.021
AAGGGGGCGA | 0.982 ± 0.019
AAGGGGGGAT | 0.974 ± 0.02
AAGGGGGGCC | 1.01 ± 0.089
AAGGGGGGTT | 1.01 ± 0.036
AAGGGGGTAC | 1.38 ± 0.77

Sequence | switch fluorescence ratio
AAGGGGGTAG | 1.01 ± 0.032
AAGGGGGTTG | 0.975 ± 0.044
AAGGGGTAAT | 0.967 ± 0.045
AAGGGGTCCA | 0.991 ± 0.029
AAGGGGTCTA | 1.002 ± 0.0085
AAGGGGTGGT | 0.989 ± 0.032
AAGGGGTGTA | 0.985 ± 0.04
AAGGGTATCC | 1.02 ± 0.013
AAGGGTCGCG | 1.02 ± 0.055
AAGGGTGTGT | 0.961 ± 0.032
AAGGGTGTTT | 1.01 ± 0.034
AAGGGTTACG | 1 ± 0.025
AAGGGTTGGG | 1.06 ± 0.058
AAGGTAAGGG | 1.01 ± 0.041
AAGGTACGAA | 1.04 ± 0.011
AAGGTATCAT | 0.978 ± 0.018
AAGGTATCGG | 0.987 ± 0.037
AAGGTATGCT | 0.982 ± 0.019
AAGGTATTAA | 1 ± 0.036
AAGGTATTGC | 0.9947 ± 0.0061
AAGGTCGGTA | 1.001 ± 0.0024
AAGGTCGTCG | 0.9834 ± 0.0076
AAGGTGAATC | 1.04 ± 0.019
AAGGTGGCCC | 1.03 ± 0.023
AAGGTGTGCC | 1.01 ± 0.03
AAGGTTAGTT | 1.003 ± 0.0083

Sequence | switch fluorescence ratio
AAGGTTATGT | 0.991 ± 0.02
AAGGTTATTA | 1 ± 0.023
AAGGTTGCGA | 0.9571 ± 0.0024
AAGGTTGGGG | 0.994 ± 0.017
AAGGTTTAAG | 0.999 ± 0.011
AAGGTTTCAG | 0.9758 ± 0.0079
AAGGTTTTTC | 1.01 ± 0.015
AAGTAAGTGG | 1.03 ± 0.042
AAGTAATAGG | 1.03 ± 0.019
AAGTAATTTC | 1.02 ± 0.013
AAGTACGGAG | 1.04 ± 0.052
AAGTACGTTG | 1.12 ± 0.057
AAGTAGGAGC | 1.06 ± 0.19
AAGTAGGCTC | 0.991 ± 0.007
AAGTAGGGGG | 0.951 ± 0.016
AAGTAGTAGT | 1.007 ± 0.0043
AAGTAGTCGA | 0.9838 ± 0.0041
AAGTAGTTAC | 1.05 ± 0.042
AAGTATAGCA | 1.03 ± 0.014
AAGTATAGTT | 1.04 ± 0.056
AAGTATCCGT | 0.986 ± 0.048
AAGTATGTAT | 1.02 ± 0.041
AAGTATTATC | 1.01 ± 0.019
AAGTCAATGT | 1.015 ± 0.0027
AAGTCACATC | 1.22 ± 0.19
AAGTCAGGAG | 1.05 ± 0.07

Sequence | switch fluorescence ratio
AAGTCCCGCT | 1.12 ± 0.17
AAGTCGGCTG | 0.9757 ± 0.002
AAGTCGGTTA | 1 ± 0.02
AAGTCTTGTT | 0.97636 ± 0.00051
AAGTCTTTTC | 0.975 ± 0.036
AAGTGAAAGC | 1.01 ± 0.068
AAGTGAAGCT | 1 ± 0.015
AAGTGAGTAG | 1.004 ± 0.01
AAGTGATTGG | 0.973 ± 0.011
AAGTGCAAAC | 1.53 ± 0.73
AAGTGCCCCA | 1.05 ± 0.016
AAGTGCGGCC | 0.987 ± 0.011
AAGTGGGCCT | 0.981 ± 0.038
AAGTGGGGCG | 1.02 ± 0.034
AAGTGGGGGG | 1 ± 0.024
AAGTGTATCA | 0.983 ± 0.02
AAGTGTGCGA | 0.997 ± 0.028
AAGTGTTTTA | 1.001 ± 0.0045
AAGTTAAAAT | 1.012 ± 0.0074
AAGTTAACTT | 0.9883 ± 0.0087
AAGTTAATGT | 1 ± 0.022
AAGTTAGGGG | 0.9756 ± 0.0084
AAGTTCAGTT | 1.01 ± 0.016
AAGTTCGAGA | 1.002 ± 0.0016
AAGTTCGGGG | 1.05 ± 0.088
AAGTTCGTGC | 1.02 ± 0.058

Sequence | switch fluorescence ratio
AAGTTGAATT | 0.99 ± 0.029
AAGTTGAGGG | 0.975 ± 0.035
AAGTTGCGCT | 1 ± 0.034
AAGTTGCGGG | 0.964 ± 0.078
AAGTTGCGTT | 1.01 ± 0.015
AAGTTGCTGG | 0.985 ± 0.019
AAGTTGGATG | 0.977 ± 0.019
AAGTTGGGGA | 0.996 ± 0.021
AAGTTGTCCG | 0.964 ± 0.0091
AAGTTGTCTT | 0.999 ± 0.027
AAGTTGTGAA | 1.01 ± 0.017
AAGTTGTGTA | 0.993 ± 0.031
AAGTTTAATA | 0.943 ± 0.034
AAGTTTACAT | 1.01 ± 0.026
AAGTTTATGG | 0.9798 ± 0.0057
AAGTTTCGCG | 0.976 ± 0.027
AAGTTTGACC | 0.978 ± 0.032
AAGTTTGTCA | 0.955 ± 0.017
AAGTTTGTGG | 0.973 ± 0.047
AAGTTTTCCG | 0.964 ± 0.062
AAGTTTTGGC | 1 ± 0.035
AAGTTTTGGG | 0.974 ± 0.02
AAGTTTTTGG | 1.01 ± 0.03
AATAAAATTT | 1.04 ± 0.022
AATAAACAAA | 0.978 ± 0.013
AATAAAGGGT | 1.02 ± 0.027

Sequence | switch fluorescence ratio
AATAAGATGT | 0.999 ± 0.066
AATAAGCTGG | 0.984 ± 0.033
AATAAGGT | 1.003 ± 0.0056
AATAATAAAC | 1.006 ± 0.0047
AATAATCTTT | 1.02 ± 0.013
AATAATGGAA | 0.987 ± 0.015
AATAATGGTT | 1.01 ± 0.013
AATAATGTTC | 0.9805 ± 0.0071
AATAATTAAA | 0.9861 ± 0.0097
AATACCCGGG | 1.021 ± 0.0045
AATACGGTCT | 1 ± 0.06
AATACTACAG | 1.08 ± 0.024
AATACTCACG | 1.5 ± 0.058
AATACTGTGC | 0.947 ± 0.064
AATAGAATAC | 1.163 ± 0.0021
AATAGAGGAG | 1.012 ± 0.007
AATAGATAGT | 0.9929 ± 0.0055
AATAGATTGC | 1.003 ± 0.0092
AATAGGGGAA | 1.01 ± 0.042
AATAGGGGAC | 1.01 ± 0.016
AATAGGGGTT | 0.984 ± 0.03
AATAGTAAAT | 0.999 ± 0.012
AATAGTAGCG | 1.01 ± 0.054
